# Assay: soluble on expression in E. coli; label from the status in PepcDB or PDB records
row,Sequence,soluble on expression in E. coli
1,MVNSDIREQLRPFFEPKAVAIIGATNKKGKVGNVIFENFKKNKEKGIFKGNIYPVNPKLDEIEGYKVYHDVSELPDDTDLAVIAIPAPAVPETMRKIGEKGIKSVIIITGGFGELGEEGKRMEQEILEIARANGIRVIGPNCVGVYVPDTGVDTVFLPDEKMDRPPSGPIAFISQSGAFAAAMLDWAAMAGIGIGKMVSYGNKIDVDDADLMEYFAHDDEIKVMTFYIEGVKDGRKFMETAKRVTKIKPIIALKSGRTEYGAKAASSHTGSLAGQDVIYDAVFKQTGIIRAEDFEHMFDLAKAFAKCKLPKGDRIGIITDGGGAGVMASDAVAKFGLKLAELSEETIKFLRERFPPHAVVGNPTDVVGDTDAERYRLALEAFTKDPNVDAILLIVLFQVPLLDEEEVINIITDYAKKSDKPIVVVSMGGYKTDKYARMLEERGIPVYPTPERGVRALAGLVRYAKYIRGNGE,soluble
2,MEESINQNPEAMEALISNLFGNISSLKSAYIELQSAHTPYDPEKIQAADKVVISELKNLSEMKHFYRENNPKPVCVSPQDSRLAAEIQEQQSLLKTYEVMVKKFQSEIQNKDSEITQMLQKIEEANQKRLKLEKNLKLRGMSTNQGSGGDGNLQFPDLTTELFVSTYEAAAKVVHDFSKPLINMMKAAGWDLDTAANSIEPDVVYAKRPHKEYAFESYICQRMFSGFQQKNFSVNSESATVMADDDTDTFFRQFLALKDMDPLDALDQRDYVTGGGHPRTAFYQAFLKLAKSIWILHKLAYSFDPAAKIFQVKKGSEFSDSYMESVVKNIH,soluble
3,MEGRLTVVPTPIGNLEDITLRALKVLREADLILAEDTRTSSVLLHHYDIHCPLQSHHKFNEHRTAKSLAERISGGERIALISDAGTPGISDPGFLLVRACAELGVVVECLPGPTALIPALVASGLPADRFVFEGFLPVKKGRQTRMKELAEELRTMIFYESPHRVLRTLTQFVETFGLDRPAAACRELSKLHEEVIRGTLAELLAHFENHPPRGEFVLIVGGAAPKGRKEEKQ,not soluble
4,GINLTPEEKFEVFGDFDPDQYEEEVRERWGNTDAYRQSKEKTASYTKEDWQRIQDEADELTRRFVALMDAGEPADSEGAMDAAEDHRQGIARNHYDCGYEMHTCLGEMYVSDERFTRNIDAAKPGLAAYMRDAILANAVRHTP,soluble
5,MEPPSPVGNPEIPSEIPKNAEKTVYKYIDEQGIEIFIEDPIYVEENGNTMVYGNPYDPTTSSQEIYEEEIVDEEYIFQVDSLPSTSSSSAAAPPPSKRARLIKDGVAYPSNTVLLTNQSLEAKNATFLAKAGARREEKEPKKQIPMINKHGSILNRNLPGMTNMFKVMAESALAKTDEMIKQEAMNNTVEEVEKGRKLDNSSRFGLENEESDQDGQSDTPPPMERLGEADDFQPTTTTFDQWPLYSNRAIDFKGFSTYQKKNYFENWKILSSFKKVFSKNFQFLAKILKFISMRDPHRNSRNRRGKNIPSGKTRFYTETADGNLIRADDGKGRLKQWTKEFTYKIILKKYDNQVTRGGDEGRGQFQRKIYTGFKGAGRLPFSIVTYSWHAGRPWNFVPPVTSRQTVRRPNWEKKSYEKVNMTSMPQMVSAYYEGFNIYSHCIVSFDEATAIMLGATPIDTNKLVIIIVAGPKISRNFPIFRLCSSVPLGYRQNGTFVIDLKRMGHCLLELRRDDNGIWNKPSGFSRFYKISENGDAIRVDKAGKLPAGMDYDVKIASKRYEHTQVQKNFVRKIYTAKGKNSESFPGSPEYAVIVYYWKGEPIQFEPAFKQNGVRTESKEYSRYQQIADEEQEFVEATGSMDPVVENLQKNLAPSPPPLLKRVTFPPEPQQSTSSTSAENLHELKLQLIRREMQNQDRFSAVLDRADGLLARMEQRFGVEHHHHIVHQEQEEEVWDHEQIIEEEEVIVQDTMEY,not soluble
6,MRAPRWLWLVILLSGSAAADWREVLPNAQVVGGGELTLFGFRVYTARLLSPAKPFVADAPMALELTYHRNIDREDLVDASIDEIKRISGARVTTEQLAAWREQMNQSFVDVQPGMKITGVYLPGREARFYVGDKLQHVVPDSQFAKAFFSIWLDPKTRNPELREQLLGSTGS,not soluble
7,AHHHHHHGSIDPRELAISAKLEGVKRIIPVVSGKGGVGKSLISTTLALVLSEQKYKVGLLDLDFHGASDHVILGFEPKELPEEDKGVIPPTVHGIKFMTIAYYTEDRPTPLRGKEISDALIELLTITRWDELDFLVVDMPPGMGDQFLDVLKYFKRGEFLIVATPSKLSLNVVRKLIELLKEEKHQILGIVENMKLDEEEDVMRIAQEYGIRYLGGIPLYRDLESKVGNVNELLATEFAEKIRGIAKKI,soluble
8,MSTHIQRSALLPYPARALFDLVNDVKRYPEFLPWCSASQVLEESESLMRAELTVAKGSLSQRFTTRNVLVPGASIEMNLENGPFTELHGVWQFKALGEKACKITLDLTFDYAGPLVKATLGPLFTQAANTMVDAFCQRAKQLYG,not soluble
9,MCNDTATPQLEELVTTVANQLMTVDAATSAEVSQRVLAYLVEQLGVDVSFLRHNDRDRRATRLVAEWPPRLNIPDPDPLRLIYFADADPVFALCEHAKEPLVFRPEPATEDYQRLIEEARGVPVTSAAAVPLVSGEITTGLLGFIKFGDRKWLEHHHHHH,not soluble
10,MGSDKIHHHHHHSCVNDLDTVPLDKDELVSDVVFGNEPLAYEQSLAKIYAGMAIGGNSGGDSDQDVVGIDGGSQASFLRVLWNMQDLPSDIAHCAWNDPGIPEFNHISWGASSPWIKGSYYRLFYQINVANAYLRETAEDKLDARGCDASLKASIKTWRAEARFLRALSYEYALDLYRNVPFVDENSPIGSIPPKQIMAADLFNWIEKELTECVEDMLEPTVGYSQDYGHANKAAAWALLSRLYLNAETYVGQNKYTECITYAKKVIETGYQLEPVYVDMFKADNHLSNEMIFPVRYEGDQTMTWGGMTAFLCWGATATQEEVNAKGAWQGVRAKSSLYNLFLKESGSDADTRKAMLRTDLTTSLEIIDENTFQNNGIPVTKYFNVNKDGTLPPSKEAYVDFPLFRLGEIYLTYAEAVLRGGQGGDRATALRYVNDLRKRAYSDKTLAPISDSDLTLNFIIDERGREFFFEGQRRTDLVRFGLFTTAGYVWPWKGGTAKGKAVENFYNVFPIPSDDIGSNTNLKQNEGY,not soluble
11,MRPGLSAKRLVVKVGSAVLTGERGLDLEAMAEIARQVAALREEGREVVLVSSGAVAAGMRRLGLKERPKDMPKKQALAALGQPLLMAFWQEAFAPFGLPVAQVLLTAEDLSSRSRYLNAKATLRALLDLGAIPVINENDTVAFEEIRFGDNDQLSARVAALVEAGLLALLSDVDALYEEDPKKNPQARPIPEVESVEAVLAHAGEENPLGSGGMKSKLLAARIAGRVGIPTLLLPGKRPGVLLQALSGAPLGTYFHARRRYRGEKAWLFGLLRPKGELVLDRGAVRALKERGASLLPAGVKEVRGRFSRGEAVRLLSEEGEEVGVGLANYASEEIARIKGRRSAEIEAVLGYRYTEEVVHRDHLALKEEA,soluble
12,MSLGTSYSEGVSSIHMVKGERGSNNLELTSESLSSTNDTIRRLQRDLLFLQNELRFEKFVRQQHLQNIGKLHREHILDMAVESERQKLLLTNKRYKAQIELLNSEIDKHRSESQAALNRRVKWENDFNNKIKALREEKKAWKSEESELKSSIESLISQLESIRNSQIDIAFSKNQLELKLQLYETKLKEYEQHLSCVNISKKQVSSSSDTSFGNTKMDSSMILSNSEAVSDEQERELIESEKHRMKLESENLHLQANIELLKKDLEAINVVYEAKIFDLEKRLSSEANAPELHNPVNLNYDAQLSKISEIKENYDELLTRYRELEGKFLESQAEVEELKNFQKPLVDTGSSIHSSPGLQEGHHHHHH,soluble
13,MQITEALISEPGEIRRFVQQAVDHWPNLLAFHFTLYSAEGIYGQQIQTFCSSFHRRVHERITEHNHTVSPSAPVVLRWLREQHEGAQIRCLLLLSQTSICHPRVGVMADEECAQLVDLLQQTWSVISAGGQCRVERCFRVARPGSSGQYVALKTAVQSFMSQVIATIIR,not soluble
14,MKSIGTQILQTERLILRRFVESDAEAMFQNWASSAENLTYVTWDPHPDVEITRNSICNWVASYTNLNYYKWAICLKENPEQVIGDISIVKIDEADLSCEIGYVLGKAYWGNGMMTETLKAILDFCFTQAGFQKVRARYASLNPASGRVMEKAGMSYLQTIVNGVERKGYLADLIYYGISREEC,not soluble

# Reference: the DeepSol protein solubility set
